“And” between values parts separate entries of the source, which are not always exact repeats. Equal values may be shown once.

These results are taken from patent publication US20200085871A1.

In the test the target is mouse CD19 on B cells (mouse) (UniProt P25918). Put plainly: cell-based or functional assay.
Chain of UniProt P25918 (P25918 19-547): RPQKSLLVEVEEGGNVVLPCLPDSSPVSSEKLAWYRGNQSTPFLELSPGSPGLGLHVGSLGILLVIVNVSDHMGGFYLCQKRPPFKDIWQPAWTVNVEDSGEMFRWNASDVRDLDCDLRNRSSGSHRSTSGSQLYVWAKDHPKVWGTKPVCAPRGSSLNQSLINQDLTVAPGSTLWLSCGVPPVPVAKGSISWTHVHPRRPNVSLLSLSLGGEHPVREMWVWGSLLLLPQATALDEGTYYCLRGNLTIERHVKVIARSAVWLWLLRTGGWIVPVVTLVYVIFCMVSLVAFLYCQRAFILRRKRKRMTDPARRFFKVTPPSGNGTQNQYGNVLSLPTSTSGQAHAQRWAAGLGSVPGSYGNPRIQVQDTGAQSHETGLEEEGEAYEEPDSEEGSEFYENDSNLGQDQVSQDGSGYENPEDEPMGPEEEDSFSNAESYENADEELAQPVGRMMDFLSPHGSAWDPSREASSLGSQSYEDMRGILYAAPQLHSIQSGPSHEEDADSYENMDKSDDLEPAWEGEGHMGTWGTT

As for “anti-CD19-28Z.1-3 CAR (1D3 anti-mouse CD19 chimeric antigen receptor), expressed on transduced mouse CD8+ cytotoxic T cells (from UniProt P31041 115-218; P24161 52-164)”, the percent CD19+ B cells remaining in CAR T-treated MRL/lpr mice (flow cytometry) is 0.05% and 0.14%.
